T1: IL8 (UniProt P10145 28-99, limits assumed)
T1 sequence (looked up): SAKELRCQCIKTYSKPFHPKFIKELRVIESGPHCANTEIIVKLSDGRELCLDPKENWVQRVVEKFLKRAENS

T2: CCL25 (UniProt O15444 24-150)
T2 sequence (looked up): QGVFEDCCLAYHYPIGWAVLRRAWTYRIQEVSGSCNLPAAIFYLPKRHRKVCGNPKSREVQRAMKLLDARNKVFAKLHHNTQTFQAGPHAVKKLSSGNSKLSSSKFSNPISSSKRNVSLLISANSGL


Key:
[1] = target: T1, IL8; test: MicroScale Thermophoresis, 5 nM NT647-labeled receptor against a gradient of ligand, 25 C
Protocol: (§1) The affinity of QTY modified cytokine receptor fused with Fc of IgG for their respective native ligands was measured using MicroScale Thermophoresis (MST). Changes in thermophoretic movement for labeled proteins upon ligand-binding were recorded and plotted as a function of ligand concentration.
(§2) MicroScale Thermophoresis (MST) is an optical method detecting changes in thermophoretic movement and TRIC of the protein-attached fluorophore upon ligand binding. Active labelled proteins contribute to the thermophoresis signal upon ligand binding. […] Herein ligand binding experiments were carried out with 5 nM NT647-labeled protein in 1×PBS, 10 mM DTT buffer with different concentration of arginine, against a gradient of respective ligands on a Monolith NT.115 pico instrument at 25° C. Synthesized receptors were labeled with Monolith NT™ 2nd generation protein labeling kit RED-NHS (NanoTemper Technologies) so as to obtain unique fluorescent signals. MST time traces were recorded and analyzed to obtain the highest possible signal-to-noise levels and amplitudes, >5 Fnorm units. The recorded fluorescence was plotted against the concentration of ligand, and curve fitting was performed using the Kd fit formula derived from the law of mass action. For clarity, binding graphs of each independent experiment were normalized to the fraction bound (0=unbound, 1=bound). […]

[2] = target: T2, CCL25; test: as above
Protocol: as §1, §2

Kd [1] [nM] | Kd [2] [nM] | Binder
60.3 | – | CXCR2-QTY Fc (Fc fusion, labeled with NT647 fluorescent dye (Monolith NT 2nd generation protein labeling kit RED-NHS), also called Fc fusion QTY CXCR2 variant receptor protein) MEDFNMESDSFEDFWKGEDLSNYSYSSTLPPFLLDAAPCEPESLEINKYYTTTTYAQTYQQSQQGNSQTMQTTQYSRVGRSVTDTYQQNQAQADQQYAQTQPTWAASKVNGWIFGTFLCKTTSQQKETNYYSGTQQQACTSTDRYLAIVHATRTLTQKRYLVKYTCQSTWGQSQQQAQPTQQYRRTVYSSNVSPACYEDMGNNTANWRMQQRTQPQSYGYTQPQQTMQYCYGFTLRTLFKAHMGQKHRAMRTTYATTQTYQQCWQPYNQTQQADTLMRTQVIQETCERRNHIDRAQDATETQGTQHSCQNPQTYAYTGQKFRHGLLKILAIHGLISKDSLPKDSRPSFVGSSSGHTSTTLTETSQVAPAHHHHHHHHHHGSKLVDPRGPTIKPCPPCKCPAPNLLGGPSVFIFPPKIKDVLMISLSPIVTCVVVDVSEDDPDVQISWFVNNVEVHTAQTQTHREDYNSTLRVVSALPIQHQDWMSGKEFKCKVNNKDLPAPIERTISKPKGSVRAPQVYVLPPPEEEMTKKQVTLTCMVTDFMPEDIYVEWTNNGKTELNYKNTEPVLDSDGSYFMYSKLRVEKKNWVERNSYSCSVVHEGLHNHHTTKSFSRTPGK
– | 37.2 | CCR9-QTY Fc (Fc fusion, labeled with NT647 fluorescent dye (Monolith NT 2nd generation protein labeling kit RED-NHS), also called Fc fusion QTY CCR9 variant receptor protein) MTPTDFTSPIPNMADDYGSESTSSMEDYVNFNFTDFYCEKNNVRQFASHYQPPQYWQTYTTGAQGNSQTTQTYWYCTRVKTMTDMYQQNQATADQQYQTTQPYWATAAADQWKFQTFMCKTTNSMYKMNYYSCTQQTMCTSTDRYTATAQAMRAHTWREKRQQYSKMTCYTTWTQAAAQCTPETQYSQIKEESGIAICTMVYPSDESTKQKSATQTQKTTQGYYQPYTTMACCYTTTTHTQTQAKKSSKHKAQKTTTTTQTTYTQSQYPYNCTQQTQTTDAYAMFISNCATSTNTDTCYQTTQTTAYYHSCQNPTQYTYTGERFRRDLVKTLKNLGCISQAQWVSFTRREGSLKLSSMLLETTSGALSLTETSQVAPAHHHHHHHHHHTETSQVAPAHHHHHHHHHHGSKLVDPRGPTIKPCPPCKCPAPNLLGGPSVFIFPPKIKDVLMISLSPIVTCVVVDVSEDDPDVQISWFVNNVEVHTAQTQTHREDYNSTLRVVSALPIQHQDWMSGKEFKCKVNNKDLPAPIERTISKPKGSVRAPQVYVLPPPEEEMTKKQVTLTCMVTDFMPEDIYVEWTNNGKTELNYKNTEPVLDSDGSYFMYSKLRVEKKNWVERNSYSCSVVHEGLHNHHTTKSFSRTPGK
